Where a chain is given by its changes, count along the chain named. Names and notes keep the numbering of the source.
What was measured:
[1] = substrate: O=CC(=O)c1ccccc1; test: PGO consumption, A250, initial velocity, Michaelis-Menten fit; type: biochemical, Homo sapiens; details: 20 mM sodium phosphate pH 7.0, 37 °C
Text: PGO consumption, A250, initial velocity, Michaelis-Menten fit on DJ-1

[2] = substrate: CC(=O)Oc1ccc([N+](=O)[O-])cc1; test: pNP formation, A400, initial velocity, Michaelis-Menten fit; type: biochemical, Homo sapiens; details: 50 mM sodium phosphate pH 7.0, 37 °C, 0.7 μM enzyme
Text: pNP formation, A400, initial velocity, Michaelis-Menten fit on DJ-1

[3] = substrate: O=CC(=O)c1ccccc1; test: PGO consumption, A250, initial velocity, Michaelis-Menten fit; type: biochemical, Escherichia coli; details: 20 mM sodium phosphate pH 7.0, 37 °C
Text: PGO consumption, A250, initial velocity, Michaelis-Menten fit on HchA

[4] = substrate: CC(=O)Oc1ccc([N+](=O)[O-])cc1; test: pNP formation, A400, initial velocity, Michaelis-Menten fit; type: biochemical, Escherichia coli; details: 50 mM sodium phosphate pH 7.0, 37 °C, 1 μM enzyme
Text: pNP formation, A400, initial velocity, Michaelis-Menten fit on HchA

B1: DJ-1 (Homo sapiens) (protein)
chain: MASKRALVILAKGAEEMETVIPVDVMRRAGIKVTVAGLAGKDPVQCSRDVVICPDASLEDAKKEGPYDVVVLPGGNLGAQNLSESAAVKEILKEQENRKGLIAAICAGPTALLAHEIGFGSKVTTHPLAKDKMMNGGHYTYSENRVEKDGLILTSRGPGTSFEFALAIVEALNGKEVAAQVKAPLVLKD
notes: N-terminal His-tag (pET28a), expressed in E. coli BL21(DE3)+RIL, Ni-NTA purified, tag removal not mentioned
Q: What does the source list for B1?
A: Km ([1]; 2 μM enzyme): 5.22 ± 0.65 × 10^-5 M; kcat ([1]; 2 μM enzyme): 0.12 ± 0.007 s⁻¹; kcat/Km ([1]; 2 μM enzyme): 2400 ± 229 M⁻¹ s⁻¹; Km [2]: 4.76 ± 1.25 × 10^-3 M; kcat [2]: 5.47 ± 0.935 s⁻¹; kcat/Km [2]: 1180 ± 203 M⁻¹ s⁻¹

B2: DJ-1 (Homo sapiens; A107H) (protein)
chain: B1 chain with A107H
notes: as for B1
Q: What does the source list for B2?
A: Km ([1]; 0.3 μM enzyme): 6.44 ± 1.13 × 10^-4 M; kcat ([1]; 0.3 μM enzyme): 1.65 ± 0.127 s⁻¹; kcat/Km ([1]; 0.3 μM enzyme): 2600 ± 303 M⁻¹ s⁻¹

B3: HchA (Escherichia coli K-12) (protein)
chain: MTVQTSKNPQVDIAEDNAFFPSEYSLSQYTSPVSDLDGVDYPKPYRGKHKILVIAADERYLPTDNGKLFSTGNHPIETLLPLYHLHAAGFEFEVATISGLMTKFEYWAMPHKDEKVMPFFEQHKSLFRNPKKLADVVASLNADSEYAAIFVPGGHGALIGLPESQDVAAALQWAIKNDRFVISLCHGPAAFLALRHGDNPLNGYSICAFPDAADKQTPEIGYMPGHLTWYFGEELKKMGMNIINDDITGRVHKDRKLLTGDSPFAANALGKLAAQEMLAAYAG
notes: N-terminal His-tag (pET21a), expressed in E. coli BL21(DE3)+RIL, Ni-NTA purified, tag removal not mentioned; dimer
Q: With B3 as the protein, how does the Km ([3]; 0.3 μM enzyme) read?
A: Its Km is 1.49 ± 0.40 × 10^-4 M.

Q: And the kcat ([3]; 0.3 μM enzyme)?
A: Its kcat is 0.67 ± 0.053 s⁻¹.

Q: And the kcat/Km ([3]; 0.3 μM enzyme)?
A: The kcat/Km was 4730 ± 1250 M⁻¹ s⁻¹.

B4: HchA (Escherichia coli K-12; H186A) (protein)
chain: B3 chain with H186A
notes: as for B3
Q: For B4, which Km [4] is on record?
A: The Km was 4.76 ± 0.36 × 10^-3 M.

Q: And the kcat [4]?
A: Its kcat is 3.11 ± 0.144 s⁻¹.

Q: And the kcat/Km [4]?
A: Its kcat/Km is 655 ± 19.4 M⁻¹ s⁻¹.

Q: What about the Km ([3]; 1.8 μM enzyme) of the same protein?
A: Its Km is 1.87 ± 0.24 × 10^-5 M.

Q: What about the kcat ([3]; 1.8 μM enzyme) of the same protein?
A: The kcat was 0.0491 ± 0.004 s⁻¹.

Q: And the kcat/Km ([3]; 1.8 μM enzyme)?
A: Its kcat/Km is 2640 ± 202 M⁻¹ s⁻¹.

B5: HchA (Escherichia coli K-12; D214A) (protein)
chain: B3 chain with D214A
notes: as for B3
Q: B5 was tested. Which Km ([3]; 1.8 μM enzyme) did it give?
A: The Km was 2.55 ± 0.47 × 10^-5 M.

Q: And the kcat ([3]; 1.8 μM enzyme)?
A: Its kcat is 0.075 ± 0.005 s⁻¹.

Q: And the kcat/Km ([3]; 1.8 μM enzyme)?
A: The kcat/Km was 2980 ± 355 M⁻¹ s⁻¹.
